The values below come from article PMC11960969, “Mdga2 deficiency leads to an aberrant activation of BDNF/TrkB signaling that underlies autism-relevant synaptic and behavioral changes in mice” (PLOS Biology, 2025).

For the assay, the system named is hippocampal proteins. Briefly: DIA quantification proteomics, hippocampus of Mdga2+/- vs WT mice. Also on record: species or system mouse. The following applies: S3 Table, downregulated DEPs; for log2FC: Mdga2+/- vs WT mouse hippocampus (HET-HIP-VS-WT-HIP), SE, pvalue and adj_pvalue in own columns c3-c5; for Class: regulation class of the protein, HET-HIP-VS-WT-HIP. As for the experimental part: The hippocampus of 1.5–2-month-old Mdga2^ +/− male mice and their WT littermate controls was collected and sent to the BGI company for DIA quantification proteomics and data analysis. Briefly, samples were lysed and sonicated. After centrifugation, the supernatant was taken for quantification. Equal amounts of proteins (100 μg) per sample were subjected to trypsin enzymatic hydrolysis. After dryness, 10 μg enzymatic peptides per sample were separated by high-pH fractionation into a total of 10 fractions using high-performance liquid chromatography (HPLC) and freeze-dried. Data-dependent acquisition (DDA) fractions and DIA samples were analyzed by nano-LC–MS/MS. DDA data was identified by Andromeda search engine within MaxQuant. Identified results were used by Spectronaut^TM for spectral library construction. For DIA data, Spectronaut^TM used the constructed spectral library information to complete deconvolution and extraction, and used the mProphet algorithm to complete analytical quality control for obtaining reliable quantitative results. The mass spectrometry proteomics data have been deposited to the ProteomeXchange Consortium via the PRIDE [62] partner repository with the dataset identifier PXD050810. DEPs between comparison groups were identified based on the quantitative results, using the fold change >1.1 and p-value <0.05 as the criteria. After retrieval from the UniProtKB database, identified DEPs were processed for GO analysis by using DAVID (https://david.ncifcrf.gov/home.jsp) and Metascape database (https://metascape.org/gp/index.html).

B1: sp¦A3KGB4¦TBC8B_MOUSE (protein, UniProt A3KGB4 1-1114, looked up)
TBC1 domain family member 8B: MWLKPEEVLLKNALKLWLMERSNEYFVLQRRRGYGEEGGGGLTGLLVGTLDSVLDSTAKVAPFRILHQTPDSQVYLSIACGANREEITKHWDWLEQNIMKTLSVFDSNEDITNFVQGKIRGLIAEEGKQSFAKEDDPEKFREALLKFEKSFGLPEQEKLVTYYSCSYWRGRVPCQGWLYLSTNFLSFYSFLLGSEIKLIISWDAISKLEKTSTVILTESIHVCSQGENHYFSMFLHINETYLLMEQLANYAIKRLFDKETFDNDPVLDDPLQITKRGLEYRAHSEQFKAFFRLPKEETLKEVHECFLWVPFSHFSSHGKMCISENYICFASQDGNLCSVIIPLREVLAIDKTDDSNRSVIISIKGKTAFRFSELKDFEQLVAKLRLKCRAASTQDDVSTEVAVSSDSTGPSENFEEQPLTCPKECSKTVNTEALMTVFHPQNLENLDSKMLKEKMKEQSWNILFSECGRGVSMFRTKKTRDLVVRGIPETLRGELWMLFSGAVNDMATNPGYYAEVVEQSLGTSNLATEEIERDLRRSLPEHPAFQSDTGISALRRVLTAYAYRNPKIGYCQAMNILTSVLLLYAKEEEAFWLLVAVCERMLPDYFNRRIIGALVDQAVFEELIRDHLPQLTDHMTDMTFFSSVSLSWFLTLFISVLPIESAVNVVDCFFYDGIKAILQLGLAILDYNLDKLLTCKDDAEAVTALNRFFDNVINKDSPLPSNVQQGSNISNEKSDHTKVDITDLIKESNEKYGSIRYEDIHSMRCRNRLYVIQTLEETTKQNVLRVVSQDVKMSLQELDELYVIFKKELFISCYWYLSCPGLKHHDPSLPYLEQYQIDCQQFRVLYHLLSPWAHSANRDSLALWTFRLLDENSDCLINFKEFSSAIDIMYNGSFTDKLKLLFKLHIPPAYTEVMSKTSSKGDELSTEELLYFSQLQVSKPADEKETESGRNSPEKGKGKIDIQAYLSQWQDELLKKEETIKDLPRMNQSQFIQFSKTLYNLFHEDPEEESLYQAIAIVTNLLLRMEEVGRKLHSPASSASTARDSGPSEGNAESSVKKDLPSPREEHQWSFAFEQILASLLNEPALVRFFERPLDLKAKLENAKSSQLRSRTKM
On to B1, for which the log2FC is given as -1.359 and the Class entry was “Down”.

B2: sp¦Q9JJR9¦NRIP3_MOUSE (protein, UniProt Q9JJR9 1-240, looked up)
Nuclear receptor-interacting …: MFYSGLLTEGGRKETDMREAASLRQQRRMKQAVQFIHKDSADLLPLDGLKKLGSSKDTQPHNILQRRLMETNLSKLRSTRVPWASKTNKFNQAKSEGLKKCEDEDMILVSCQCAGKDVKALVDTGCQYNLISSACVDRLGLKDHVKSHKHEGEKLSLPRHLKVVGQIEHLMITVGSLRLDCQAAVVDDNEKSLSLGLQTLRSLKCIINLDKHRLIVGKTDKEEIPFVETVSVNDDNTSEA
Take B2: the log2FC is listed as -1.366 and the Class result was “Down”.

B3: sp¦Q8K0L9¦ZBT20_MOUSE (protein, UniProt Q8K0L9 1-741, looked up)
Zinc finger and BTB …: MLERKKPKTAENQKASEENEITQPGGSSAKPALPCLNFEAVLSPAPALIHSTHSLTNSHAHTGSSDCDISCKGMTERIHSINLHNFSNSVLETLNEQRNRGHFCDVTVRIHGSMLRAHRCVLAAGSPFFQDKLLLGYSDIEIPSVVSVQSVQKLIDFMYSGVLRVSQSEALQILTAASILQIKTVIDECTRIVSQNVGDVFPGIQDSGQDTPRGTPESGTSGQSSDTESGYLQSHPQHSVDRIYSALYACSMQNGSGERSFYSGAVVSHHETALGLPRDHHMEDPSWITRIHERSQQMERYLSTTPETTHCRKQPRPVRIQTLVGNIHIKQEMEDDYDYYGQQRVQILERNESEECTEDTDQAEGTESEPKGESFDSGVSSSIGTEPDSVEQQFGAAAPRDGQAEPAQPEQAAEAPAESSAQPNQLEPGASSPERSNESEMDNTVITVSNSSDKGVLQQPSVNTSIGQPLPSTQLYLRQTETLTSNLRMPLTLTSNTQVIGTAGNTYLPALFTTQPAGSGPKPFLFSLPQPLTGQQTQFVTVSQPGLSTFTAQLPAPQPLASSAGHSTASGQGDKKPYECTLCNKTFTAKQNYVKHMFVHTGEKPHQCSICWRSFSLKDYLIKHMVTHTGVRAYQCSICNKRFTQKSSLNVHMRLHRGEKSYECYICKKKFSHKTLLERHVALHSASNGTPPAGTPPGARAGPPGVVACTEGTTYVCSVCPAKFDQIEQFNDHMRMHVSDG
Turning to B3, the log2FC is given as -1.342 and the Class entry is “Down”.

B4: sp¦P0C7L0¦WIPF3_MOUSE (protein, UniProt P0C7L0 1-485, looked up)
WAS/WASL-interacting protein …: MPVPPPPPPPPPPPPPPPPPLGAPPPPPLGAPPPPPPPGPPVSTDTPSLRKPDLKGRSALLADIQQGTRLRKVTQINDRSAPQIEGSKGTSKEGGAAGSNARGGNTPPALGDLFAGGFPVLRPAGQRDVSGGKSGQGPGSRAPSPRLPIKAISGPLPAPASPRLGNASETHSSARPVPPRPSVPAPPPPTPPPPPPPPLPPASPIKAQLVSPPAPPTKVNPSVVPPPLPCAPPLPPPPPTPPPLPPASALSDKAVRPQLAPLHLPPIPPPLPLLPPCGYPGLHSEPNSPAQEVREPPAPPPPPPPPPPPPLPTYASCSSRTAVAPPPLPGANNSGSETPPPLPPKSPSFQTQKALPTPPGAPGPQAILQKKRRGPGTSGGKLNPPPAPPARSPTTELSSKSQQPGGQLRNGGQHAIDDFESKFTFHSMEDFPPPDEYKPCQKIYPSKVPRSRTPGSWLQAEAAGQSSDDIKSRNSQLSLKALPVR
As for B4, the log2FC was -1.266 and the Class entry is “Down”.

B5: sp¦Q6NWV3¦IF122_MOUSE (protein, UniProt Q6NWV3 1-1182, looked up)
Intraflagellar transport …: MRAVLTWRDKAEQCIYDLAFKPDGTQLILAAGNRLLVYDTSDGTLLQPLKGHKDTVYCVAYAKDGKRFASGSADKSIIIWTSKLEGILKYTHNDSIQCVSYNPVTHQLASCSSSDFGLWSPEQKSVSKHKSSSKITCCSWTNDGQYLALGMANGIISIRNKNGEEKVKIERPGGSLSPIWSICWNPSREEHNDILAVADWGQKLSFYQLSGKQIGKDRPLNFDPCCISYFTKGEYILVGGSDKQVSLFTKDGVRLGTVGEQNSWVWTCRVKPDSNYVVVGCQDGTISFYQLIFSTVHGLYKDRYAYRDSMTDVIVQHLITEQKVRIKCRELVKKIAIYKNRLAIQLPEKILIYELYSEDSTDMHYRVKEKIVKKFECNLLVVCADHIILCQEKRLQCLSFSGVKEREWQMESLIRYIKVIGGPAGREGLLVGLKNGQILKIFVDNLFAIVLLKQATAVRCLDMSASRNKLAVVDENDTCLVYDIHTKELLFQEPNANSVAWNTQCEDMLCFSGGGYLNIKASTFPVHQQKLQGFVVGYNGSKIFCLHVFSMSAVEVPQSAPMYQYLDRKMFKEAYQIACLGVTDADWRELAMEALEGLEFETARKAFTRVQDLRYLELISSIEERKKRGETNNDLFLADVFSYQGKFHEAAKLYKRSGHENLALDMYTDLCMFEYAKDFLGSGDPKETKMLITKQADWARNINEPKAAVEMYISAGEHAKAIEISGSHGWVDMLIDIARKLDKAEREPLLMCACYFKKLDSPGYAAETYLKIGDLKSLVQLYVDTKRWDEAFALGEKHPEFKDDVYVPYAQWLAENDRFEEAQKAFHKAGRQGEAVRVLEQLTHNAVVESRFNDAAYYYWMLSMQCLDMAQDPAQKDAMLDKFHHFQHLAELYHGYQTIHRYTEEPFSFDLPETLFNISKFLLHSLTKATPLGISKVNTLFTLAKQSKALGAYKLARHAYDKLRGLQIPARIQKSIELGTLTIRSKPFHDSEELVPLCYRCSTNNPLLNNLGNVCINCRQPFIFSASSYEVLHLVEFYLEEGITDEEAVALIDLEAPRHKREGKWRETSSNNSQTLKLDETMDSIGEDDPFTAKLSFEQGSSEFVPVVVNRSVLRSMSRRDVLIKRWPPPLQWQYFRSLLPDASITMCPSCFQMFHSEDYELLVLQHACCPYCRRRIDDTGP
As for B5, the log2FC is given as -1.266 and the Class entry is reported as “Down”.

B6: sp¦O35449¦PRRT1_MOUSE (protein, UniProt O35449 1-306, looked up)
Proline-rich transmembrane …: MSSEKSGLPDSVPHTSPPPYNAPQPPAEPPIPPPQTAPSSHHHHHHHYHQSGTATLPRLGAGGLASAAASAQRGPSSSATLPRPPHHAPPGPAAGAPPPGCATLPRMPPDPYLQETRFEGPLPPPPPAAAAPPPPAPAPTAQAPGFVVPTHAGAVGTLPLGGYVAPGYPLQLQPCTAYVPVYPVGTPYAGGTPGGPGVTSTLPPPPQGPGLALLEPRRPPHDYMPIAVLTTICCFWPTGIIAIFKAVQVRTALARGDLVSAEIASREARNFSFISLAVGIAAMVLCTILTVVIIIAAQHHENYWDP
B6: the log2FC is reported as -1.273 and the Class result is given as “Down”.

B7: sp¦Q3UHB1¦NT5D3_MOUSE (protein, UniProt Q3UHB1 1-546, looked up)
5'-nucleotidase …: MATVAAAARGAGARAAAGLRSCGGAVARERPRSGCARRLCSAPAAPAAVDMKSYLWARYHEAKRSTDELVPSIMNNLLNPDAIFSNNEMSLSDIEIYGFDYDYTLVFYSKHLHTLIFNAARDLLINEHRYPVEIRKYEYDPSFAIRGLHYDVQRAVLMKIDAFHYIQMGTVYRGLSVVPDEEVIDMYEGSHVPLEQMSDFYGKSSHGNTMKQFMDIFSLPEMTLLSCVNEHFLKNNIDYEPVHLYKDVKDSIRDVHIKGIMYRAIEADIEKYICYADQTRAVLAKLAAHGKKMFLITNSPSSFVDKGMRYIVGKDWRDLFDVVIVQAEKPNFFNDKRRPFRKVNEKGVLLWDKIHKLQKGQIYKQGNLYEFLKLTGWRGSKVLYFGDHIYSDLADLTLKHGWRTGAIIPELRSELRIMNTEQYIQTMTWLQTLTGLLEQMQVHRDAESQLVLQEWKKERKEMREMTKSFFNAQFGSLFRTDQNPTYFLRRLSRFADIYMASLSCLLNYDVHHTFYPRRTPLQHELPAWSDSPSAFKAPLLQEAQAK
For B7, the log2FC is recorded as -1.2606 and the Class result is given as “Down”.
